In one assay the test system is antibodies to HCV. The assay can be described thus: Peptide ELISA for relative immunoreactivity, 8 member HCV serum panel (Panel I). The assay is classed as binding, human. In a few lines: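 Wells coated with peptides at 5 ug/mL in 10 mM NaHCO3 pH 9.5, gelatin-blocked, then probed with eight HCV antibody-positive sera at 1:20 for 15 min at 37° C. HRP goat anti-human IgG (1:1800, 15 min), OPD/H2O2 substrate, acid-stopped, A492 read; immunoreactivity expressed relative to peptide IIH.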
On the technique in general: ELISA stands for enzyme-linked immunosorbent assay.

The subject of assay [1] is antibodies to peptide VIIIE. The assay is described as follows: Presence of antibodies to peptide VIIIE in sera. The assay is classed as binding, human.

Experimental findings from US5747239A, “Synthetic peptides specific for the detection of antibodies to HCV, diagnosis of HCV infection and preventions thereof as vaccines” (United Biomedical, Inc., priority 1994, dated 1998) are described below.

B1: STIPKPQRKTKRNTNRRPQDVKFPGGGQIVGGVYLLPRRGPRLGVRATRKTSERSQPRGRR (peptide)
peptide: STIPKPQRKTKRNTNRRPQDVKFPGGGQIVGGVYLLPRRGPRLGVRATRKTSERSQPRGRR
As for B1, the A492 nm in the assay on antibodies to HCV (Panel I serum No. 1, peptide coated at 5 ug/mL, serum 1:20) came to 2.745; in the assay on antibodies to HCV (Panel I serum No. 2), 2.208; with antibodies to HCV (Panel I serum No. 3), 2.468; in the assay with antibodies to HCV (Panel I serum No. 4) it was 3.032; in the assay on antibodies to HCV (Panel I serum No. 5), 0.054; in the assay on antibodies to HCV (Panel I serum No. 6), 2.108. In addition, the results for the A492 nm in the assay with antibodies to HCV (Panel I serum No. 7) and in the assay with antibodies to HCV (Panel I serum No. 8) were 0.730 and 3.006, respectively. Also, the “samples of the HCV serum panel that reacted” value in the assay with antibodies to HCV (Panel I, 8 samples) is reported as 7 out of 8. Moreover, the “% Relative Immunoreactivity” value was found to be 98% with antibodies to HCV (Panel I, peptide IIH as the reference); 100.0% in the assay on antibodies to HCV (capsid peptides, Panel I, relative to VIIIE, coated at 5, 1 and 0.2 μg/mL). In addition, in the assay on antibodies to HCV (sum over Panel I No. 1 to 8), the “A492 nm Total” value came to 16.351. The “antibodies to the peptide present in” value was 15-20% in assay [1] (HBsAg positive individuals) and 1-2% in assay [1] (normal controls).
